Measured values reported in US20140271653A1.

Assays:
Assay in all cases: cell-based or functional assay
[1] = molecular target: RSV-F of RSV subtype A clinical isolate A1997/12-35 (respiratory syncytial virus subtype A, clinical isolate A1997/12-35)
[2] = molecular target: RSV-F of RSV subtype A clinical isolate A1998/12-21 (respiratory syncytial virus subtype A, clinical isolate A1998/12-21)
[3] = molecular target: RSV-F of RSV subtype A clinical isolate A1998/3-2 (respiratory syncytial virus subtype A, clinical isolate A1998/3-2)
[4] = molecular target: RSV-F of RSV subtype A clinical isolate A2000/3-4 (respiratory syncytial virus subtype A, clinical isolate A2000/3-4)
[5] = molecular target: RSV-F of RSV subtype A clinical isolate A2001/2-20 (respiratory syncytial virus subtype A, clinical isolate A2001/2-20)
[6] = molecular target: RSV-F of RSV subtype A clinical isolate A2001/3-12 (respiratory syncytial virus subtype A, clinical isolate A2001/3-12)
[7] = molecular target: RSV-F of RSV subtype A strain A2 (1540) (respiratory syncytial virus subtype A, strain A2 (1540)) (UniProt P03420)
Chain of RSV-F of RSV subtype A strain A2 (1540) (respiratory syncytial virus subtype A, strain A2 (1540)) (P03420 26-574): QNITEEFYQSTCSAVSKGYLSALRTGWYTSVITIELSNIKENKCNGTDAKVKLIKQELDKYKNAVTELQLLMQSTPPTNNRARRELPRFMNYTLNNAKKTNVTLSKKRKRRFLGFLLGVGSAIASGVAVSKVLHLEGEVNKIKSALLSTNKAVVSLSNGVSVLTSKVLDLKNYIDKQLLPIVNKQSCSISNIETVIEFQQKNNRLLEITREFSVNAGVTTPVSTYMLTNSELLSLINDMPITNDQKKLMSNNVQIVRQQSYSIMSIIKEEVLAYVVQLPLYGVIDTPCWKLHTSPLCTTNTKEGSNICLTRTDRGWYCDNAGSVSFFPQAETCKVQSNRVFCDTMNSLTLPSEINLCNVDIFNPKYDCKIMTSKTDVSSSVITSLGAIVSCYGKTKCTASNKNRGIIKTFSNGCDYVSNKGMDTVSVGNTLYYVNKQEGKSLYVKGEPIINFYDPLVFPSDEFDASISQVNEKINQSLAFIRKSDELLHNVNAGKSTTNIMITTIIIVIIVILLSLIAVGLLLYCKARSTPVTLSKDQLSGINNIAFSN

[8] = molecular target: RSV-F of RSV subtype A strain Long (respiratory syncytial virus subtype A, strain Long) (UniProt P12568)
Chain of RSV-F of RSV subtype A strain Long (respiratory syncytial virus subtype A, strain Long) (P12568 26-574): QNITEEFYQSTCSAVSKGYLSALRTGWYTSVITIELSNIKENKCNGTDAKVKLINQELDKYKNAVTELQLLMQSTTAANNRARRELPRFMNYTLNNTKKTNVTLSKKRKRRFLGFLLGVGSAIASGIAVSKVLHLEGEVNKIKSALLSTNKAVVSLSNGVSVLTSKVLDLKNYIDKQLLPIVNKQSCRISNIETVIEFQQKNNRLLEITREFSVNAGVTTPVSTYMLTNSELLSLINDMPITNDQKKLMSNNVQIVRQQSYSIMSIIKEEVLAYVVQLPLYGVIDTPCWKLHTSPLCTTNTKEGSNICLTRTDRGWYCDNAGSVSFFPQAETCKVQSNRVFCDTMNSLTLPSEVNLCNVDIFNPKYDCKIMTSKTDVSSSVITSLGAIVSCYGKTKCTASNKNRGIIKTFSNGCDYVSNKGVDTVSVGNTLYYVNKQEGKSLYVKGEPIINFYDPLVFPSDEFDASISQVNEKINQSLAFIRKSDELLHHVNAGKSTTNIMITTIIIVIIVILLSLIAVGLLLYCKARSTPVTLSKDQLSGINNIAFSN

[9] = molecular target: RSV-F of RSV subtype B strain 1400 (respiratory syncytial virus subtype B, strain 1400)
[10] = molecular target: RSV-F of RSV subtype B strain 18537 (respiratory syncytial virus subtype B, strain 18537) (UniProt P13843)
Chain of RSV-F of RSV subtype B strain 18537 (respiratory syncytial virus subtype B, strain 18537) (P13843 26-574): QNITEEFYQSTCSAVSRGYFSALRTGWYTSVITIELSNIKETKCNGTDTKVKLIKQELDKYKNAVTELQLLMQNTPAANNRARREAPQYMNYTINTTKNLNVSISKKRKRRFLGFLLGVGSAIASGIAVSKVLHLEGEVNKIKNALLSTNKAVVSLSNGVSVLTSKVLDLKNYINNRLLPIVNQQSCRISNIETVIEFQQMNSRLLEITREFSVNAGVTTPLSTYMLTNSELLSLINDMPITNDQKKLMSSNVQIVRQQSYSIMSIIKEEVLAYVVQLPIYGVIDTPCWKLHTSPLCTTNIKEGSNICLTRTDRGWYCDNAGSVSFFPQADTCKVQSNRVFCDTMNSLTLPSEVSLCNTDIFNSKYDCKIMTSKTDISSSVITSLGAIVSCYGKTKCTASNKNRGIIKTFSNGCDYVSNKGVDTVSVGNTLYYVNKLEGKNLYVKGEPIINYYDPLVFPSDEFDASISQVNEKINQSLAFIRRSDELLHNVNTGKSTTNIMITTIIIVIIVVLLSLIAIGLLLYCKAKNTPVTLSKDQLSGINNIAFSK

[11] = molecular target: RSV-F of RSV subtype B strain 1A2 (respiratory syncytial virus subtype B, strain 1A2)
[12] = molecular target: RSV-F of RSV subtype B strain 9320 (respiratory syncytial virus subtype B, strain 9320)

Chain of Control III (AM-22) (antibody) (VH): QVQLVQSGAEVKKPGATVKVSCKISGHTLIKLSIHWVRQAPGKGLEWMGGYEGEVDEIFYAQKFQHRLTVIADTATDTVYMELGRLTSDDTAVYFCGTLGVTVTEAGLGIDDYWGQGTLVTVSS
Chain of Control III (AM-22) (antibody) (VL): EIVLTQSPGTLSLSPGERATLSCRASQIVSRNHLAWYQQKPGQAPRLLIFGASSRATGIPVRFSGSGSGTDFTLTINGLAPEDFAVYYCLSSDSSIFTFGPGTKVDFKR

## Control III (AM-22) (antibody)
[1]
  IC50 (pM), RSV micro-neutralization, clinical isolate: 20 pM
[2]
  IC50 (pM), RSV micro-neutralization, clinical isolate: 43 pM
[3]
  IC50 (pM), RSV micro-neutralization, clinical isolate: 31 pM
[4]
  IC50 (pM), RSV micro-neutralization, clinical isolate: 55 pM
[5]
  IC50 (pM), RSV micro-neutralization, clinical isolate: 72 pM
[6]
  IC50 (pM), RSV micro-neutralization, clinical isolate: 60 pM
[7]
  IC50 (pM), RSV micro-neutralization, A/A2: 91 pM
[8]
  IC50 (pM), RSV micro-neutralization, A/Long: 86 pM
[9]
  IC50 (pM), RSV micro-neutralization, B/1400: 190 pM
[10]
  IC50 (pM), RSV micro-neutralization, B/18537: 660 pM
[11]
  IC50 (pM), RSV micro-neutralization, B/1A2: 580 pM
[12]
  IC50 (pM), RSV micro-neutralization, B/9320: 2510 pM
